Consider one substance from patent US20020082410.

The target of the series is Ipf1 (RSV-Ipf1 expression vector) (Mus musculus) (UniProt P52946). The series can be described thus: cell_activity. The note with it: betaTC1 cells with RSV-Ipf1; in CHO cells Ipf1 raised activity to the betaTC1 level (about 3-fold over CHO).

“5x P1 site linked to beta-globin TATA box reporter” returned an activity of 2 fold.
